# Test results as given in patent publication US20240270846A1 (published 2024).
# Changes are numbered by the printed parent chain. In names and notes the source's numbering stands.
# B1: CE115HA000/GLS3000 N53D one-arm antibody (antibody, human IgG1, kappa, L234A L235A, N297A, name in Kabat numbering)
# heavy: QVQLVESGGGVVQPGRSLRLSCAASGFTFSNAWMHWVRQAPGKGLEWVAQIKAKSNNYATYYAESVKGRFTISRDDSKNSLYLQMNSLKTEDTAVYYCRYVHYGAYYGVDAWGQGTTVTVSSASTKGPSVFPLAPSSKSTSGGTAALGCLVKDYFPEPVTVSWNSGALTSGVHTFPAVLQSSGLYSLSSVVTVPSSSLGTQTYICNVNHKPSNTKVDKKVEPKSCDKTHTCPPCPAPEAAGGPSVFLFPPKPKDTLMISRTPEVTCVVVDVSHEDPEVKFNWYVDGVEVHNAKTKPREEQYASTYRVVSVLTVLHQDWLNGKEYKCKVSNKALPAPIEKTISKAKGQPREPQVYTLPPSRCELTKNQVSLSCAVKGFYPSDIAVEWESNGQPENNYKTTPPVLDSDGSFFLVSKLTVDKSRWQQGNVFSCSVMHEALHNHYTQKSLSLSPDYKDDDDK
# chain: EPKSSDKTHTCPPCPAPELLGGPSVFLFPPKPKDTLMISRTPEVTCVVVDVSHEDPEVKFNWYVDGVEVHNAKTKPREEQYNSTYRVVSVLTVLHQDWLNGKEYKCKVSNKALPAPIEKTISKAKGQPREPQVCTLPPSRDELTKNQVSLWCLVKGFYPSDIAVEWESNGQPENNYKTTPPVLDSDGSFFLYSKLTVDKSRWQQGNVFSCSVMHEALHNRYTQKSLSLSP
# light: DIVMTQSPLSLPVTPGEPASISCRSSQSLVHSNRNTYLHWYQQKPGQAPRLLIYKVSDRFSGVPDRFSGSGSGTDFTLKISRVEAEDVGVYYCGQGTQVPYTFGQGTKLEIKRTVAAPSVFIFPPSDEQLKSGTASVVCLLNNFYPREAKVQWKVDNALQSGNSQESVTEQDSKDSTYSLSSTLTLSKADYEKHKVYACEVTHQGLSSPVTKSFNRGEC
# notes: one-arm IgG1
# B2: CE115HA000/GLS3000 F55D one-arm antibody (antibody, human IgG1, kappa, L234A L235A, N297A, name in Kabat numbering)
# heavy: B1 heavy
# chain: B1 chain
# light: B1 light with D58N, F60D
# notes: one-arm IgG1
# B3: GLS3000 V94G one-arm antibody (antibody, human IgG1, kappa, L234A L235A, N297A, name in Kabat numbering)
# light: B1 light with D58N, V99G
# heavy: B1 heavy
# chain: B1 chain
# B4: GLS3000 V94L one-arm antibody (antibody, human IgG1, kappa, L234A L235A, N297A, name in Kabat numbering)
# light: B1 light with D58N, V99L
# heavy: B1 heavy
# chain: B1 chain
# B5: GLS3000 V94T one-arm antibody (antibody, human IgG1, kappa, L234A L235A, N297A, name in Kabat numbering)
# light: B1 light with D58N, V99T
# heavy: B1 heavy
# chain: B1 chain
# B6: GLS3000 Y32P one-arm antibody (antibody, human IgG1, kappa, L234A L235A, N297A, name in Kabat numbering)
# light: B1 light with Y37P, D58N
# heavy: B1 heavy
# chain: B1 chain
# B7: GLS3000 V94R one-arm antibody (antibody, human IgG1, kappa, L234A L235A, N297A, name in Kabat numbering)
# light: B1 light with D58N, V99R
# heavy: B1 heavy
# chain: B1 chain
# B8: GLS3000 V94P one-arm antibody (antibody, human IgG1, kappa, L234A L235A, N297A, name in Kabat numbering)
# light: B1 light with D58N, V99P
# heavy: B1 heavy
# chain: B1 chain
# B9: GLS3000 Y96L one-arm antibody (antibody, human IgG1, kappa, L234A L235A, N297A, name in Kabat numbering)
# light: B1 light with D58N, Y101L
# heavy: B1 heavy
# chain: B1 chain
# B10: GLS3000 V94M one-arm antibody (antibody, human IgG1, kappa, L234A L235A, N297A, name in Kabat numbering)
# light: B1 light with D58N, V99M
# heavy: B1 heavy
# chain: B1 chain
# B11: GLS3000 V94Q one-arm antibody (antibody, human IgG1, kappa, L234A L235A, N297A, name in Kabat numbering)
# light: B1 light with D58N, V99Q
# heavy: B1 heavy
# chain: B1 chain
# B12: GLS3000 V94H one-arm antibody (antibody, human IgG1, kappa, L234A L235A, N297A, name in Kabat numbering)
# light: B1 light with D58N, V99H
# heavy: B1 heavy
# chain: B1 chain
# B13: GLS3000 Y96H one-arm antibody (antibody, human IgG1, kappa, L234A L235A, N297A, name in Kabat numbering)
# light: B1 light with D58N, Y101H
# heavy: B1 heavy
# chain: B1 chain
# B14: GLS3000 Y32F one-arm antibody (antibody, human IgG1, kappa, L234A L235A, N297A, name in Kabat numbering)
# light: B1 light with Y37F, D58N
# heavy: B1 heavy
# chain: B1 chain
# B15: GLS3000 Y96D one-arm antibody (antibody, human IgG1, kappa, L234A L235A, N297A, name in Kabat numbering)
# light: B1 light with D58N, Y101D
# heavy: B1 heavy
# chain: B1 chain
# B16: GLS3000 Y96F one-arm antibody (antibody, human IgG1, kappa, L234A L235A, N297A, name in Kabat numbering)
# light: B1 light with D58N, Y101F
# heavy: B1 heavy
# chain: B1 chain
# B17: GLS3000 V94W one-arm antibody (antibody, human IgG1, kappa, L234A L235A, N297A, name in Kabat numbering)
# light: B1 light with D58N, V99W
# heavy: B1 heavy
# chain: B1 chain
# B18: GLS3000 Y96E one-arm antibody (antibody, human IgG1, kappa, L234A L235A, N297A, name in Kabat numbering)
# light: B1 light with D58N, Y101E
# heavy: B1 heavy
# chain: B1 chain
# B19: GLS3000 V94K one-arm antibody (antibody, human IgG1, kappa, L234A L235A, N297A, name in Kabat numbering)
# light: B1 light with D58N, V99K
# heavy: B1 heavy
# chain: B1 chain
# B20: GLS3000 V94I one-arm antibody (antibody, human IgG1, kappa, L234A L235A, N297A, name in Kabat numbering)
# light: B1 light with D58N, V99I
# heavy: B1 heavy
# chain: B1 chain
# B21: GLS3000 V94N one-arm antibody (antibody, human IgG1, kappa, L234A L235A, N297A, name in Kabat numbering)
# light: B1 light with D58N, V99N
# heavy: B1 heavy
# chain: B1 chain
# B22: GLS3000 V94S one-arm antibody (antibody, human IgG1, kappa, L234A L235A, N297A, name in Kabat numbering)
# light: B1 light with D58N, V99S
# heavy: B1 heavy
# chain: B1 chain
# Molecular target: T1, CD3 epsilon homodimer protein (UniProt P07766 23-126)
# T1 construct: also called CD3 (CD3 epsilon)
# Assay: SPR (Biacore T200), CD3e homodimer on CM4 chip, antibody as analyte; KD ratio vs unaltered GLS3000;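 further: CD3 epsilon homodimer amine-coupled to the sensor surface, antibodies injected as analyte at 25 °C with HBS-EP+ running buffer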
row,Binder,KD ratio to GLS3000
1,B1,2.8 ratio
2,B2,1.02 ratio

# Molecular target: T2, CD3 epsilon homodimer protein (UniProt P07766 23-126)
# T2 construct: Construct of the homodimer is not described; also called CD3 (CD3 epsilon)
# Assay: SPR Biacore T200, CD3e homodimer on chip, antibody analyte;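 further: CD3 epsilon homodimer amine-coupled on CM4 sensor chip, antibodies injected as analyte at 25 °C in HBS-EP+, ratio ≥0.8 taken as binding retained versus unaltered parent antibody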
# T2 sequence (P07766 23-126): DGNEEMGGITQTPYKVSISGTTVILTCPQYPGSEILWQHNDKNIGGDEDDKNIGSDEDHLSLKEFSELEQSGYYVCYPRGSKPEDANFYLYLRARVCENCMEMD
row,Binder,ratio of amounts bound (altered form/GLS3000)
1,B3,0.48
2,B4,0.44
3,B5,0.93
4,B6,0.24
5,B7,0.66
6,B8,1.26
7,B9,0.32
8,B10,0.44
9,B11,0.76
10,B12,0.78
11,B13,0.23
12,B14,0.29
13,B15,0.17
14,B16,1.17
15,B17,0.58
16,B18,0.17
17,B19,0.57
18,B20,0.66
19,B21,1.05
20,B22,0.93
